Results: patent publication US20220073604A1 (ARGENX BVBA, published 2022)

What was measured:
[1] = target: T1, human IL-6 (as added in the B9 and 7TD1 bioassays) (human, UniProt P05231 30-212); assay: cell-based or functional assay
[2] = target: T1, human IL-6 (as added in the B9 and 7TD1 …); assay: cell-based or functional assay; remark: listed apart in the source

| Binder | IC50, 7TD1 proliferation assay, exp 29.06 [2] [pM] | Rel. Potency, 7TD1, exp 29.06 [2] | IC50, 7TD1 proliferation assay, exp 7.07 [2] [pM] | Rel. Potency, 7TD1, exp 7.07 [2] | further results |
| --- | --- | --- | --- | --- | --- |
| 111A7_SDM2_M100A (antibody, V domains shown) VH: EVQLLESGGGLVQPGGSLRLSCAASGFTFSSYAMSWVRQAPGKGPEWVSRISAGGGSTYYGDSVKGRFTISRDNSKNTLYLQMNSLRAEDTAVYYCANRAGWGAGDYWGQGTLVTVSS VL: QTVVTQEPSFSVSPGGTVTLTCGLSSGSVTASNYPGWYQQTPGQAPRALIYSTNDRHSGVPDRFSGSISGNKAALTITGAQAEDEADYYCALDIGDITEFGGGTQLTVL |  |  |  |  | IC50, 7TD1 cells [1]: 1.57 pM; Potency relative to 68F2, 7TD1 cells [1]: 0.43 |
| 129F2 (germlined variant of 68F2), full-length IgG1 (antibody, V domains shown) VH: EVQLQESGPGLVKPSQTLSLTCTVSGGSITSRYYAWSWIRQPPGKGLEWIGVIDYDGDTYYSPSLKSRVTISWDTSKNQFSLKLSSVTAEDTAVYYCARDPDVVTGFHYDYWGQGTMVTVSS VL: QSALTQPPSVSGTPGQTVTISCAGANNDIGTYAYVSWYQQLPGTAPKLMIYKVTTRASGIPDRFSGSKSGNTASLTISGLQSEDEADYYCASYRNFNNAVFGGGTKLTVL | 0.517 | 1.08 |  |  | IC50, 7TD1 proliferation assay, exp 22.06 [2]: 0.703 pM |
| 126A3 (germlined variant of 68F2), full-length IgG1 (antibody, V domains shown) VH: EVQLQESGPGLVKPSQTLSLTCTVSGGSITTRYYAWSWIRQPPGKGLEWIGVIDYDGDTYYSPSLKSRVTISVDTSKNQFSLKLSSVTAADTAVYYCARDPDVVTGFHYDYWGQGTMVTVSS VL: QSALTQPPSVSGAPGQTVTISCAGANNDIGTYAYVSWYQQLPGTAPKLLIYKVTTRASGIPSRFSGSKSGNTASLTITGLQSEDEADYYCASYRNFNNAVFGRGTKLTVL | 0.564 | 0.99 | 0.63 | 2.16 |  |
| 127F1 (germlined variant of 68F2), full-length IgG1 (antibody, V domains shown) VH: EVQLQESGPGLVKPSQTLSLTCTVSGGSITTRYYAWSWIRQPPGKGLEWIGVIDYDGDTYYSPSLKSRVSISWDTSKNQFSLKLSSVTAADTAVYYCARDPDVVTGFHYDYWGQGTLVTVSS VL: QSVLTQPPSVSGTPGQRVTISCAGANNDIGTYAYVSWYQQLPGTAPKLLIYKVTTRASGVPDRFSGSKSGNSASLTITGLQSEDEADYYCASYRNFNNAVFGGGTHLTVL | 0.637 | 0.88 | 1.49 | 0.91 |  |
| 129E11 (germlined variant of 68F2), full-length IgG1 (antibody, V domains shown) VH: EVQLQESGPGLVKPSQTLSLTCTVSGGSITSRYYAWSWIRQPPGKGLEWMGVIDYDGDTYYSPSLKSRVTISVDTSKNQFSLKLSSVTAEDTAVYYCARDPDVVTGFHYDYWGQGTLVTVSS VL: QSALTQPPLVSGSPGQTVTISCAGANNDIGTYAYVSWYQQLPGTAPKLLIYKVTTRASGVPDRFSGSKSGNTASLTISGLQSEDEADYYCASYRNFNNAVFGTGTKLTVL | 0.857 | 0.65 | 1.55 | 0.88 |  |
| 128G3 (germlined variant of 68F2), full-length IgG1 (antibody, V domains shown) VH: EVQLQESGPGLVKPSQTLSLTCTVSGGSITTRYYAWSWIRQPPGKGLEWIGVIDYDGDTYYSPSLKSRTTISVDTSKNQFSLKLSSVTPEDTAVYYCARDPDVVTGFHYDYWGQGTMVTVSS VL: QSALTQPPSVSGAPGQTVTISCAGANNDIGTYAYVSWYQQLPGTAPKLLIYKVTTRASGVPDRFSGSKSGNTASLAISGLQAEDEADYYCASYRNFNNAVFGGGTHLTVL |  |  |  |  | IC50, 7TD1 proliferation assay, exp 22.06 (batch 17.06) [2]: 1.34 pM; IC50, 7TD1 proliferation assay, exp 29.06 (batch 17.06) [2]: 1.07 pM; IC50, 7TD1 proliferation assay, exp 29.06 (batch 24.06) [2]: 1.46 pM; Rel. Potency, 7TD1, exp 29.06 (batch 24.06) [2]: 0.38 |
